Experimental data taken from the MegaScale stability set (Tsuboyama et al. 2023).

B1: HHH_rd1_0493 (parent)
chain: RDEDEKEKIKEALKRGNEDKAKEIAKRANVSPEEYERLRKEAE

Variants of: B1
Assay: folding stability dG (cDNA display proteolysis); higher = more stable
Conditions: PBS, room temperature

Going from RDEDEKEKIKEALKRGNEDKAKEIAKRANVSPEEYEMLRKEAE [R37M] to RDEDEKEKIKEALKRGNEDKAKEIAKRANVSPEEYETLRKEAE [R37T], the “folding stability dG” value falls from 2.49 kcal/mol to 2.22 kcal/mol.

First: RDEDEKEKIKEALKRGNEDKAKEIAKRANVSPEEYELLRKEAE [R37L]
Second: RDEDEKEKIKEALKRGNEDKAKEIAKRANVSPEEYEILRKEAE [R37I]
The “folding stability dG” value of the first is lower: 2.42 kcal/mol for the first, 2.44 kcal/mol for the second.

Compared with RDEDEKEKIKEALKRGNEDKAKEIAKRANVSPEEEERLRKEAE [Y35E], RDEDEKEKIKEALKRGNEDKAKEIAKRANVSPEEMERLRKEAE [Y35M] is higher in “folding stability dG” value: 0.245 kcal/mol for the first, 2.29 kcal/mol for the second.

Going from RDEDEKEKIKEALKRGNEDKAKEIAKRANVSPEELERLRKEAE [Y35L] to RDEDEKEKIKEALKRGNEDKAKEIAKRANVSPEEWERLRKEAE [Y35W], the “folding stability dG” value rises from 2.26 kcal/mol to 2.58 kcal/mol.

Going from RDEDEKEKIKEALKRGNEDKAKEIAKRANVSPEEFERLRKEAE [Y35F] to RDEDEKEKIKEALKRGNEDKAKEIAKRANVSPEEIERLRKEAE [Y35I], the “folding stability dG” value falls from 3.53 kcal/mol to 1.39 kcal/mol.

Going from RDEDEKEKIKEALKRGNEDKAKEIAKRANVSPEEDERLRKEAE [Y35D] to RDEDEKEKIKEALKRGNEDKAKEIAKRANVSPEEKERLRKEAE [Y35K], the “folding stability dG” value falls from 0.022 kcal/mol to 0.009 kcal/mol.

Compared with RDEDEKEKIKEALKRGNEDKAKEIAKRANVSPEEVERLRKEAE [Y35V], RDEDEKEKIKEALKRGNEDKAKEIAKRANVSPEEHERLRKEAE [Y35H] is lower in “folding stability dG” value: 1.59 kcal/mol for the first, 0.142 kcal/mol for the second.

Compared with RDEDEKEKIKEALKRGNEDKAKEIAKRANVSPEERERLRKEAE [Y35R], RDEDEKEKIKEALKRGNEDKAKEIAKRANVSPEETERLRKEAE [Y35T] is higher in “folding stability dG” value: 0.281 kcal/mol for the first, 0.361 kcal/mol for the second.

Going from RDEDEKEKIKEALKRGNEDKAKEIAKRANVSPEECERLRKEAE [Y35C] to RDEDEKEKIKEALKRGNEDKAKEIAKRANVSPEEAERLRKEAE [Y35A], the “folding stability dG” value falls from 0.708 kcal/mol to 0.298 kcal/mol.

Compared with RDEDEKEKIKEALKRGNEDKAKEIAKRANVSPEEQERLRKEAE [Y35Q], RDEDEKEKIKEALKRGNEDKAKEIAKRANVSPEENERLRKEAE [Y35N] is lower in “folding stability dG” value: 0.44 kcal/mol for the first, -0.057 kcal/mol for the second.

Going from RDEDEKEKIKEALKRGNEDKAKEIAKRANVSPEESERLRKEAE [Y35S] to RDEDEKEKIKEALKRGNEDKAKEIAKRANVSPEEGERLRKEAE [Y35G], the “folding stability dG” value falls from 0.291 kcal/mol to -0.05 kcal/mol.

Going from RDEDEKEKIKEALKRGNEDKAKEIAKRANVSPPEYERLRKEAE [E33P] to RDEDEKEKIKEALKRGNEDKAKEIAKRANVSPCEYERLRKEAE [E33C], the “folding stability dG” value rises from 1.57 kcal/mol to 2.29 kcal/mol.

Going from RDEDEKEKIKEALKRGNEDKAKEIAKRANVSPVEYERLRKEAE [E33V] to RDEDEKEKIKEALKRGNEDKAKEIAKRANVSPWEYERLRKEAE [E33W], the “folding stability dG” value falls from 2.22 kcal/mol to 2.06 kcal/mol.

First: RDEDEKEKIKEALKRGNEDKAKEIAKRANVSPKEYERLRKEAE [E33K]
Second: RDEDEKEKIKEALKRGNEDKAKEIAKRANVSPIEYERLRKEAE [E33I]
The “folding stability dG” value of the first is lower: 2.04 kcal/mol for the first, 2.19 kcal/mol for the second.

First: RDEDEKEKIKEALKRGNEDKAKEIAKRANVSPREYERLRKEAE [E33R]
Second: RDEDEKEKIKEALKRGNEDKAKEIAKRANVSPMEYERLRKEAE [E33M]
The “folding stability dG” value of the first is lower: 1.99 kcal/mol for the first, 2.33 kcal/mol for the second.

First: RDEDEKEKIKEALKRGNEDKAKEIAKRANVSPTEYERLRKEAE [E33T]
Second: RDEDEKEKIKEALKRGNEDKAKEIAKRANVSPSEYERLRKEAE [E33S]
The “folding stability dG” value of the first is lower: 2.33 kcal/mol for the first, 2.43 kcal/mol for the second.

First: RDEDEKEKIKEALKRGNEDKAKEIAKRANVSPNEYERLRKEAE [E33N]
Second: RDEDEKEKIKEALKRGNEDKAKEIAKRANVSPYEYERLRKEAE [E33Y]
The “folding stability dG” value of the first is higher: 2.07 kcal/mol for the first, 1.92 kcal/mol for the second.

First: RDEDEKEKIKEALKRGNEDKAKEIAKRANVSPLEYERLRKEAE [E33L]
Second: RDEDEKEKIKEALKRGNEDKAKEIAKRANVSPHEYERLRKEAE [E33H]
The “folding stability dG” value of the first is higher: 2.27 kcal/mol for the first, 2.03 kcal/mol for the second.

Going from RDEDEKEKIKEALKRGNEDKAKEIAKRANVSPFEYERLRKEAE [E33F] to RDEDEKEKIKEALKRGNEDKAKEIAKRANVSPGEYERLRKEAE [E33G], the “folding stability dG” value rises from 1.96 kcal/mol to 2.25 kcal/mol.

Going from RDEDEKEKIKEALKRGNEDKAKEIAKRANVSPQEYERLRKEAE [E33Q] to RDEDEKEKIKEALKRGNEDKAKEIAKRANVSPAEYERLRKEAE [E33A], the “folding stability dG” value rises from 2.58 kcal/mol to 2.69 kcal/mol.

First: RDEDEKEKIKEALKRGNEDKAKEIAKRANVSPDEYERLRKEAE [E33D]
Second: RDEDEKEKIKEALKRGNEDKAKEIAKRANVSPEKYERLRKEAE [E34K]
The “folding stability dG” value of the first is higher: 2.64 kcal/mol for the first, -0.215 kcal/mol for the second.

Compared with RDEDEKEKIKEALKRGNEDKAKEIAKRANVSPECYERLRKEAE [E34C], RDEDEKEKIKEALKRGNEDKAKEIAKRANVSPEWYERLRKEAE [E34W] is lower in “folding stability dG” value: 1.85 kcal/mol for the first, 1.1 kcal/mol for the second.

Compared with RDEDEKEKIKEALKRGNEDKAKEIAKRANVSPEGYERLRKEAE [E34G], RDEDEKEKIKEALKRGNEDKAKEIAKRANVSPETYERLRKEAE [E34T] is higher in “folding stability dG” value: 1.06 kcal/mol for the first, 1.51 kcal/mol for the second.

First: RDEDEKEKIKEALKRGNEDKAKEIAKRANVSPEDYERLRKEAE [E34D]
Second: RDEDEKEKIKEALKRGNEDKAKEIAKRANVSPEIYERLRKEAE [E34I]
The “folding stability dG” value of the first is higher: 2.42 kcal/mol for the first, 1.79 kcal/mol for the second.

Going from RDEDEKEKIKEALKRGNEDKAKEIAKRANVSPEQYERLRKEAE [E34Q] to RDEDEKEKIKEALKRGNEDKAKEIAKRANVSPENYERLRKEAE [E34N], the “folding stability dG” value falls from 1.68 kcal/mol to 0.916 kcal/mol.

Going from RDEDEKEKIKEALKRGNEDKAKEIAKRANVSPEYYERLRKEAE [E34Y] to RDEDEKEKIKEALKRGNEDKAKEIAKRANVSPEMYERLRKEAE [E34M], the “folding stability dG” value rises from 0.926 kcal/mol to 1.72 kcal/mol.

Compared with RDEDEKEKIKEALKRGNEDKAKEIAKRANVSPEHYERLRKEAE [E34H], RDEDEKEKIKEALKRGNEDKAKEIAKRANVSPEAYERLRKEAE [E34A] is higher in “folding stability dG” value: 0.903 kcal/mol for the first, 1.69 kcal/mol for the second.

Compared with RDEDEKEKIKEALKRGNEDKAKEIAKRANVSPELYERLRKEAE [E34L], RDEDEKEKIKEALKRGNEDKAKEIAKRANVSPEFYERLRKEAE [E34F] is lower in “folding stability dG” value: 1.56 kcal/mol for the first, 0.766 kcal/mol for the second.

Going from RDEDEKEKIKEALKRGNEDKAKEIAKRANVSPESYERLRKEAE [E34S] to RDEDEKEKIKEALKRGNEDKAKEIAKRANVSPERYERLRKEAE [E34R], the “folding stability dG” value falls from 1.14 kcal/mol to -0.261 kcal/mol.

In the case of RDEDEKEKIKEALKRGNEDKAKEIAKRANVSPEVYERLRKEAE [E34V], the “folding stability dG” value is reported as 1.81 kcal/mol.
